One may read the Kd as a measure of binding affinity in units of concentration. Lower therefore signals tighter binding.

Test [1] has as its target T1, BSA (Bos taurus, UniProt P02769).
T1 construct: commercial protein; also called Bovine Serum Albumine
As to the kind of experiment: micropanning: monoclonal phage on BSA coated on a 96-well plate, bound phage eluted and counted.

Test [2] has as its target T2, hen egg white lysozyme (Gallus gallus, UniProt P00698 19-147).
T2 construct: mature; The residue numbers E35, D52, W63, D101 and N103 fit mature numbering; also called hen egg lysozyme; Gallus gallus egg white lysozyme
The experiment in a line: phage ELISA, multivalent display, immobilised hen egg white lysozyme, anti-M13 antibody and HRP-conjugated secondary antibody, absorbance. As to the method: (§1) Phage ELISA experiments were performed to analyse selected clones for binding to lysozyme. Ninety-six-well ELISA plates were coated with 5 ug/ml hen egg lysozyme, 5 ug/ml RNaseA or 1% BSA in PBS at 4° C. overnight. After two washes with TBS, plates were blocked with blocking buffer (5% skim milk in TBS) for one hour at RT before phage (10^9 cfu/well, derived from VCS-M13d3) were added in 2.5% skim milk-TBS-T. Plates were incubated for 2 hours at RT with agitation. After 10 washes with H_2O, mouse anti-M13 protein VIII diluted in blocking buffer was added and incubated for 1 h at RT. Plates were washed 4 times with H_2O and horseradish peroxidase (HRP)-coupled rabbit-anti-mouse immunoglobulins (Pierce) in blocking buffer were added to the wells and incubated for 1 h at RT. Wells were washed 4 times with H_2O and 50 ul substrate solution (1 mg/ml o-phenylene-diamine in PBS 0.030% H_2O_2) was added per well. The reaction was stopped after ~15 min by addition of 25 ul 2.5 M H_2SO_4 and the absorbance was recorded at 492 nm.
(§2) BSA (white), RNaseA (hatched) and hen egg white lysozyme (black) were immobilised and incubated with monoclonal phage samples. Bound particles were detected with a mouse anti-M13 primary antibody and an HRP-conjugated anti-mouse secondary antibody. […] Bound phage were eluted and counted by bacterial infection.
Background: ELISA stands for enzyme-linked immunosorbent assay.

Test [3] deals with T2, hen egg white lysozyme. As to the kind of experiment: surface plasmon resonance; L8, from the crystal-structure interface table. For orientation: SPR reads the build-up and loss of mass on a sensor chip optically.
Test [4] has as its target T2, hen egg white lysozyme. The experiment in a line: micropanning: monoclonal phage on lysozyme coated on a 96-well plate, bound phage eluted and counted by bacterial infection. As to the method: BSA (white), RNaseA (hatched) and hen egg white lysozyme (black) were immobilised and incubated with monoclonal phage samples. Bound particles were detected with a mouse anti-M13 primary antibody and an HRP-conjugated anti-mouse secondary antibody. […] A 96-well plate was coated with lysozyme (black bars) or BSA (white bars) and incubated with monoclonal phage samples from clones picked after 6 rounds of selection. Bound phage were eluted and counted by bacterial infection.
Hen egg white lysozyme is a small stable protein which is commercially available and has a number of medically important human homologues. After four rounds of panning on immobilised lysozyme, enrichment of bound phage was observed. A further two more rounds of panning were performed before clones were randomly picked and screened for binding to lysozyme. Monoclonal phage samples were then prepared and studies were undertaken to characterize binding in a 'micropanning' approach on lysozyme immobilised on a 96-well ELISA plate. Bound phage were eluted and counted. […] These clones were sequenced. Sequences for some of the clones were identical (L14 and L15; L4 and L18; L8 and L21) narrowing down the number of unique clones to six.

The target of test [5] is T3, RNaseA (Bos taurus, UniProt P61823).
T3 construct: commercial protein
T3 sequence (single chain, looked up): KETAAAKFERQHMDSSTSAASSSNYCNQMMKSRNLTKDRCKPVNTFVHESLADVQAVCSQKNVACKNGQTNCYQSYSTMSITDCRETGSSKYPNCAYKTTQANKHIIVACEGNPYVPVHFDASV
The experiment in a line: phage ELISA, multivalent display, immobilised RNaseA, anti-M13 antibody and HRP-conjugated secondary antibody, absorbance. Here is the method: as §1, §2

Test [6] has as its target T1, BSA. As to the kind of experiment: phage ELISA, immobilised BSA, anti-M13 antibody and HRP-conjugated secondary antibody, absorbance.
Test [7] has as its target T3, RNaseA. The experiment in a line: phage ELISA, immobilised RNaseA, anti-M13 antibody and HRP-conjugated secondary antibody, absorbance.
Test [8] addresses T2, hen egg white lysozyme. As to the kind of experiment: phage ELISA on immobilised lysozyme, multivalent display.
The target of test [9] is T2, hen egg white lysozyme. As to the kind of experiment: SPR (Biacore), lysozyme amine-coupled to CM5 chip, L6 as analyte from 370 µM in 1:2 dilutions, steady-state response plot. As to the method:
The ligand lysozyme was coupled to a CM5 Biacore sensor chip, at 30 µg/mL in sodium acetate buffer at pH 4.3 via the primary amine groups of the protein. The second of four flow cells available on the chip was activated with 35 µL, at 5 µL/min, of a 1:1 mixture of EDC:NHS (commercially available from Biacore). Lysozyme was coupled to the activated surface with successive injections of between 10-20 µL, until an adequate response was seen. Remaining uncoupled active groups on the chip were deactivated with an injection of ethanolamine-HCl. For analysis, OB3 13mRL L6 was organized in a 1:2 dilution series of six concentrations, beginning at 370 µM in running buffer, plus a buffer-only blank. Each of the seven samples were analyzed in duplicate for 1 min @ 25 µL/min, in random order, using the first flow cell as a reference. The response curves were visualized and processed using BIAevaluation (Biacore). Relative response at each concentration was averaged and plotted to determine Rmax and kD using Sigma Plot (Systat Software, Inc.).

T1 sequence (P02769 25-607 limits assumed): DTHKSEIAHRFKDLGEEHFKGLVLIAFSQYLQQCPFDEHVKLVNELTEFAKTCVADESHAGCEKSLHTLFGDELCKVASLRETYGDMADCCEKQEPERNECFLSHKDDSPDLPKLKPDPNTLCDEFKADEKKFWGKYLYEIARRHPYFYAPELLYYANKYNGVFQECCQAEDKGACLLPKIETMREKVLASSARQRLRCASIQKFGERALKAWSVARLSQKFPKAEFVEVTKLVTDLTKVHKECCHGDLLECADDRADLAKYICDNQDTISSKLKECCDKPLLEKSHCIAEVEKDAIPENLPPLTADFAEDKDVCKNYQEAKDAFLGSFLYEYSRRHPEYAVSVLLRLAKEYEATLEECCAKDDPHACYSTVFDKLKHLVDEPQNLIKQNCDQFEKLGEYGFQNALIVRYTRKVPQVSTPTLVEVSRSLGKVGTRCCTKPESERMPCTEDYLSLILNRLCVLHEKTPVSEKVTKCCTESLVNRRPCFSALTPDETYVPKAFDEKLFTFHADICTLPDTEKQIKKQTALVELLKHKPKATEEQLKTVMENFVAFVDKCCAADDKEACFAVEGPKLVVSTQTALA
T2 sequence (P00698 19-147): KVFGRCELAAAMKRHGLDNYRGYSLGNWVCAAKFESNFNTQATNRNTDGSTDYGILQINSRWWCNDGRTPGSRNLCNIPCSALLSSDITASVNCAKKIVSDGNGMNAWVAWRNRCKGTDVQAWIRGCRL

B1: L5 (aspRS-OB 13mRL mutant) displayed on phage as pIII fusion (designed binder)
chain: VYPKKTHWTAEITPNLHGTEVVVAGWVTDLVDAGTWKFVQVADREGGANVWVSLVAGKTPDHLFKVFAELSREDVVVIKGIVEASKLPSYGVEIFPSEIWILNKAKPLPID
notes: Monoclonal phage; Monovalent display in micropanning, multivalent display in ELISA; not shown: c-myc tag and pIII of phagemid pRPSP2 (display carriers at the C end)
In the case of B1, the binding result in test [1] was “no binding”; in test [2], “binds”.

B2: L8 (aspRS-OB 13mRL mutant) displayed on phage as pIII fusion (designed binder)
chain: VYPKKTHWTAEITPNLHGTEVVVAGWVASLGDYGRVKIVKVSDREGGAAVPVYLEAGKTPDHLFKVFAELSREDVVVIKGIVEASKGVGRGVEIFPSEIWILNKAKPLPID
notes: Monoclonal phage; also called L21; L33; not shown: c-myc tag and pIII of phagemid pRPSP2 (display carriers at the C end)
As to B2, the binding result in test [1] is listed as “no binding”.

B3: OBody L8, purified, GST tag removed (designed binder)
chain: B2 chain
notes: GST tag removed with rTEV protease; Used for co-crystallisation with lysozyme
As to B3, in test [3], binding was characterised by a dissociation constant (Kd) of 36 µM.

B4: L16 (aspRS-OB 13mRL mutant) displayed on phage as pIII fusion (designed binder)
chain: VYPKKTHWTAEITPNLHGTEVVVAGWVASLVDGGPRKWVFVRDREGGAEVTVELTAGKTPDHLFKVFAELSREDVVVIKGIVEASKGLRWGVEIFPSEIWILNKAKPLPID
notes: Monoclonal phage, monovalent display, micropanning only; not shown: c-myc tag and pIII of phagemid pRPSP2 (display carriers at the C end)
As for B4, the binding result is “no binding” in [1] and “binds” in test [4].

B5: L14 (aspRS-OB 13mRL mutant) displayed on phage as pIII fusion (designed binder)
chain: VYPKKTHWTAEITPNLHGTEVVVAGWVSDLLDAGRAKYVFVYDREGGAEVMVTLAAGKTPDHLFKVFAELSREDVVVIKGIVEASKGWRDGVEIFPSEIWILNKAKPLPID
notes: Monoclonal phage; also called L15; L32; not shown: c-myc tag and pIII of phagemid pRPSP2 (display carriers at the C end)
Regarding B5, the binding result is reported as “no binding” in [1], “binds” in test [5] and “binds” in test [2].

B6: L34 (aspRS-OB 13mRL mutant) displayed on phage as pIII fusion (designed binder)
chain: VYPKKTHWTAEITPNLHGTEVVVAGWVVGLMDEGALKGVEVRDREGGAPVEVTLEAGKTPDHLFKVFAELSREDVVVIKGIVEASKGYGSGVEIFPSEIWILNKAKPLPID
notes: Monoclonal phage, multivalent display, ELISA; not shown: c-myc tag and pIII of phagemid pRPSP2 (display carriers at the C end)
As for B6, the binding result in [6] is given as “no binding (tested: 10^9 cfu/well)”; in [7], “no binding (tested: 10^9 cfu/well)”; in test [8] it was “binds”.

B7: L6 (aspRS-OB 13mRL mutant) displayed on phage as pIII fusion (designed binder)
chain: VYPKKTHWTAEITPNLHGTEVVVAGWVEDLVDAGKTKWVFVCDREGGAQVIVELVAGKTPDHLFKVFAELSREDVVVIKGIVEASKSRAVGVEIFPSEIWILNKAKPLPID
notes: as for B1
For the molecule B7, in test [1], the binding result is listed as “no binding”.

B8: OB3 13mRL L6, expressed and purified (designed binder)
chain: B7 chain
notes: Analyte in the Biacore experiment; also called Clone L6; selected OB-fold domain L6
For the molecule B8, the dissociation constant Kd in [9] was 36 µM.

The values above are taken from US9181543 (OBODIES, dated 2015).
